Results published in patent US6977240 (Takeda / Millennium, dated 2005).
Blank lines part the entries; values can stand above or below the molecule they belong to.

Experiments:
[1] = molecular target: human ObR long form, expressed on transfected cells (human) (UniProt P48357); assay: cell-based or functional assay
[2] = molecular target: T1, murine short form ObR (clone famj5312), expressed on COS cells (mouse, UniProt P48356 23-889); assay: Scatchard transformation of AP-OB binding to transfected COS cells
T1 construct: also called mouse ObR; mouse short form
T1 sequence: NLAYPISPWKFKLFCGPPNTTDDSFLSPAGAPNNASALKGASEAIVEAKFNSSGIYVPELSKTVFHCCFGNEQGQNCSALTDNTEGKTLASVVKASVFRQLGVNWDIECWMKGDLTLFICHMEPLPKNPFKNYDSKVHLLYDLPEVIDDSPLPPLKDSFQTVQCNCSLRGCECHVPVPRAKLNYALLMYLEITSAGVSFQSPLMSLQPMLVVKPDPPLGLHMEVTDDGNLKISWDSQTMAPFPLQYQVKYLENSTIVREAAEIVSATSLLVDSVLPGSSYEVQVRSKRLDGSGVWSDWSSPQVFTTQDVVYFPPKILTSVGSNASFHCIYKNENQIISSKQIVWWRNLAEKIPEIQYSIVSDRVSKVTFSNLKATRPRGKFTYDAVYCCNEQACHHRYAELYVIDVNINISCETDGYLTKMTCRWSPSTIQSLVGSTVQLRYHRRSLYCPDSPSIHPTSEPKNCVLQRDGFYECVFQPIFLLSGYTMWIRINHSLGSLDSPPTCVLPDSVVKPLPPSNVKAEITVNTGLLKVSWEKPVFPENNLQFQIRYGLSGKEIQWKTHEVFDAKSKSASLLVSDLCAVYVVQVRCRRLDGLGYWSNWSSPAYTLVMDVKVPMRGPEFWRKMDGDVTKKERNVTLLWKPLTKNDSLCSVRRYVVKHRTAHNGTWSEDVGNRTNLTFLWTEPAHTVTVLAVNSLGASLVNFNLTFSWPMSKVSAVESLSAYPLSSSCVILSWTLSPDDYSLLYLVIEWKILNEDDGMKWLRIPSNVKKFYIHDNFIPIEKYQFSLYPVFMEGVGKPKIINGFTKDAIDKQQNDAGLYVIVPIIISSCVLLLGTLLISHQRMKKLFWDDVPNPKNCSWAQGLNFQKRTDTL
Experimental: (§1) FIG. 2B-1 Binding isotherm and Scatchard analysis of the interaction of AP-Ob and ObR. COS-7 cells transfected with the obR cDNA were incubated with various concentrations of the AP-Ob (mouse) fusion protein FIG. 2B-2. Scatchard transformation is shown as an inset. Paragraph beginning at page 16, line 3, please replace the paragraph with the following text:
(§2) After transient transfection of the ObR clone into COS cells, strong binding of 1 nM murine AP-Ob is detected (relative to mock transfected COS cells or ObR transfected COS cells incubated with unfused AP) (FIG. 2A). […] A fusion between AP and human Ob also binds mouse ObR with high affinity, as does a fusion protein with mouse leptin at the N-terminus and AP at the C-terminus (Ob-AP).
(§3) To determine whether ObR has the ability to recruit the cellular signaling machinery, COS cells were transiently transfected with expression vectors for the two representative forms of ObR, mouse short form (also corresponding to a mutated form detected in db/db mice) and human long form. Two days after transfection, cells were incubated in 1 nM human or mouse alkaline phosphatase-OB, and cell surface expression of ObR was detected as indicated by specific binding of the alkaline phosphatase-OB (AP-OB) fusion protein.

[3] = molecular target: T2, human ObR long form, expressed on transfected cells (human, UniProt P48357 21-1165); assay: as above
T2 construct: also called human long form; long form of ObR
T2 sequence: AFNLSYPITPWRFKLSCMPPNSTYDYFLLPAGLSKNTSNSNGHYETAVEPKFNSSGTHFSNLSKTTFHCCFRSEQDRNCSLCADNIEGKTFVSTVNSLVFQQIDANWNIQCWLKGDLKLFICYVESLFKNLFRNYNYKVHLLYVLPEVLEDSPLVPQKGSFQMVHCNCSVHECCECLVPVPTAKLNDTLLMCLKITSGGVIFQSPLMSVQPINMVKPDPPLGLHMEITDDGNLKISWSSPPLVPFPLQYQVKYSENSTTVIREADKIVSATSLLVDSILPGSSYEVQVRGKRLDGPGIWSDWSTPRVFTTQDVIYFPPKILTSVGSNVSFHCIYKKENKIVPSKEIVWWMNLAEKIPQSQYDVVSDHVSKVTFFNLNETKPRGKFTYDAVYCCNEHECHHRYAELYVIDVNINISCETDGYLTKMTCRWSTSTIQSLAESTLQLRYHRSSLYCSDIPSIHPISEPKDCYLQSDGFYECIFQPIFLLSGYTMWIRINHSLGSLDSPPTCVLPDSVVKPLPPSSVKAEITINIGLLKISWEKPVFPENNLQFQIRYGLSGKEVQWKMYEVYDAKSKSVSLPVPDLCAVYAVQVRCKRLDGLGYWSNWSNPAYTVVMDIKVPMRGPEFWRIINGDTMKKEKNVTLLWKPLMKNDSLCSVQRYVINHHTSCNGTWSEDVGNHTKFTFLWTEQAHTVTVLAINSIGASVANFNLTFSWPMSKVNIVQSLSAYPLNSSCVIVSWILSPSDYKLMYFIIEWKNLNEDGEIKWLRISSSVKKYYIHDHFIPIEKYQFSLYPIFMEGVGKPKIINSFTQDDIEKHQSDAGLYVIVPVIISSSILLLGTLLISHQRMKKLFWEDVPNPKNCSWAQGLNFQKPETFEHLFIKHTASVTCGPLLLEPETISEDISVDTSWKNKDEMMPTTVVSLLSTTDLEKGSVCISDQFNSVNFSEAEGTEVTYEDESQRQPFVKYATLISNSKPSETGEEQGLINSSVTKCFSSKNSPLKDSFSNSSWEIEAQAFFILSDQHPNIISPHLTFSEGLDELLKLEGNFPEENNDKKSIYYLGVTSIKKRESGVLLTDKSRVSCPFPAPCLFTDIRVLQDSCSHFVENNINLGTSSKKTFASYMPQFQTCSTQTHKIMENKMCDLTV
Experimental: as §1, §2, §3

[4] = molecular target: T1, murine short form ObR (clone famj5312), …; assay: 1 nM AP-OB on transfected COS cells; reference human long form ObR; laid to surface expression by the filing
Experimental: COS-1, H-35 and Hep3B cells were transfected with plasmid DNA by the DEAE-dextran method (Lopata et al., 1989, *Nucleic Acids Res.* 12:5707–5717); HepG2 cells by the calcium phosphate method (Graham et al., 1973, *Virology* 52:456–461); and COS-7 cells by the lipofectamine method. Subcultures of COS cells were maintained for 16 hours in serum-free medium prior to the activation of STAT proteins by treatment with cytokines for 15 minutes. DNA binding by STAT proteins was determined by EMSA on whole cell extracts as described in Sadowski et al. (1993, *Science* 26:1739–1744). […] CAT activities were quantitated by testing serial dilutions of cell extracts, normalized to the expression of the cotransfected marker plasmid pIE-MUP (Morella et al., 1995, *J. Biol. Chem.* 270:[…]), and are expressed relative the value of the untreated control cultures in each experimental series (defined as =1.0). Quantitative cell surface binding of the AP-OB fusion protein (Section 6) was done essentially as outlined by Cheng and Flanagan (1994, Cell 79:157–168).
To determine whether ObR has the ability to recruit the cellular signaling machinery, COS cells were transiently transfected with expression vectors for the two representative forms of ObR, mouse short form (also corresponding to a mutated form detected in db/db mice) and human long form. […]

[5] = molecular target: T3, Ob receptor in mouse choroid plexus tissue (mouse, UniProt P48356 23-889); assay: AP staining of quartered mouse brain tissue
T3 construct: Native receptor in quartered mouse brain
T3 sequence: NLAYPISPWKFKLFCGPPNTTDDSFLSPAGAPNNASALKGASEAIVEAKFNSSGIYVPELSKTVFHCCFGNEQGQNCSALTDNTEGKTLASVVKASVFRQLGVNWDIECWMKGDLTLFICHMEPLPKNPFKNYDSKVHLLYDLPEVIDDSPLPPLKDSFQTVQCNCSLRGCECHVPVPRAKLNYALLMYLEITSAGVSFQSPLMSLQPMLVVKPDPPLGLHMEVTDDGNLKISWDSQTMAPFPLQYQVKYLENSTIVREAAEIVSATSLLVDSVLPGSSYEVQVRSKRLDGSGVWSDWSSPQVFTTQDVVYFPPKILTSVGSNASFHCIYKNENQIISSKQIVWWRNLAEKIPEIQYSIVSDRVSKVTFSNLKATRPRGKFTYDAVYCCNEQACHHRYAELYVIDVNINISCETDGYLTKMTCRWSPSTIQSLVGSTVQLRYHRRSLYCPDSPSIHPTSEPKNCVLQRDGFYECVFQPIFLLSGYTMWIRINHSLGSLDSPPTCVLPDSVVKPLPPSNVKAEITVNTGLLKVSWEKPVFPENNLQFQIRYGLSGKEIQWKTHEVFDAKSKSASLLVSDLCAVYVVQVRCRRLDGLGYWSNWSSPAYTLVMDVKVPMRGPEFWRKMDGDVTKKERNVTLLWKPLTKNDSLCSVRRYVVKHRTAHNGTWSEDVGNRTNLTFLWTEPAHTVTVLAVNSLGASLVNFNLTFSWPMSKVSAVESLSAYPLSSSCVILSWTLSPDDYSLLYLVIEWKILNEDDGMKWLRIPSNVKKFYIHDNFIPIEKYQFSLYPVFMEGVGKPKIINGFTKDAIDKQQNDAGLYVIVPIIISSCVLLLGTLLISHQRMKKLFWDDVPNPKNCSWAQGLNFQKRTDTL
Experimental: (§4) In Situ Fusion Protein Binding. Quartered mouse brains, isolated choroid plexus, cells, and cell lines were rinsed once with HBHA (Hank's balanced salt solution with 0.5 mg/ml BSA, 0.1% NaN_3, 20 mM HEPES [pH 7.0]) in 12-well plates. Tissue was then incubated with tissue culture supernatants containing AP-Ob fusion, Ob-AP fusion, or control supernatants (i.e., supernatants containing unfused AP only, containing AP-OB or OB-AP fusion proteins plus 80-fold molar excess of *E. coli*-derived recombinant OB, or supernatants from mock-transfected COS cells), for 75 minutes with gentle rotation, at room temperature. Samples were then treated as described previously (Cheng, H. J. and Flanagan, J. G., 1994, *Cell* 79:157–168).

[6] = molecular target: T1, murine short form ObR (clone famj5312), …; assay: AP activity bound to COS cells transfected with the ObR clone
Experimental: as §4, §2

pIL6RE-SEAP reporter activity in 293 cells, 100 ng/ml leptin for 24 hours [1]: 8 fold
Molecule: leptin (Section 16, species not stated) (ligand)

Kd [2]: 0.7 nM | Kd [3]: 1 nM | fold binding against the long form [4]: ~10 fold
B1: mouse AP-Ob fusion protein (ligand, UniProt P41160 22-167, looked up, not shown: large carriers)
chain: VPIQKVQDDTKTLIKTIVTRINDISHTQSVSAKQRVTGLDFIPGLHPILSLSKMDQTLAVYQQVLTSLPSQNVLQIANDLENLRDLLHLLAFSKSCSLPQTSGLQKPESLDGVLEASLYSTEVVALSRLQGSLQDILQQLDVSPEC
notes: mature; AP at the N-terminus, predicted mature Ob at the C-terminus; used as COS-7 conditioned medium; also called murine AP-Ob; AP-Ob (mouse)

binding result [5]: no binding | binding result [6]: no binding
B2: unfused AP (alkaline phosphatase) (enzyme, UniProt P05187 23-511, looked up)
chain: IIPVEEENPDFWNREAAEALGAAKKLQPAQTAAKNLIIFLGDGMGVSTVTAARILKGQKKDKLGPEIPLAMDRFPYVALSKTYNVDKHVPDSGATATAYLCGVKGNFQTIGLSAAARFNQCNTTRGNEVISVMNRAKKAGKSVGVVTTTRVQHASPAGTYAHTVNRNWYSDADVPASARQEGCQDIATQLISNMDIDVILGGGRKYMFRMGTPDPEYPDDYSQGGTRLDGKNLVQEWLAKRQGARYVWNRTELMQASLDPSVTHLMGLFEPGDMKYEIHRDSTLDPSLMEMTEAALRLLSRNPRGFFLFVEGGRIDHGHHESRAYRALTETIMFDDAIERAGQLTSEEDTLSLVTADHSHVFSFGGYPLRGSSIFGLAPGKARDRKAYTVLLYGNGPGYVLKDGARPDVTESESGSPEYRQQSAVPLDEETHAGEDVAVFARGPQAHLVHGVQEQTFIAHVMAFAACLEPYTACDLAPPAGTTDAAHPG
notes: Control; also called control AP
